Experimental data as given in patent US20070136897A1, “Nucleic acid molecules encoding hyperactive nucleoside di-phosphate kinase 2 and uses thereof” (priority 2005, published 2007).

T1: Arabidopsis thaliana NDPK2 C-terminal deletion mutant R230Stop (80-229aa), SEQ ID NO: 2 (Arabidopsis thaliana, UniProt O64903)
T1 sequence (O64903 80-229): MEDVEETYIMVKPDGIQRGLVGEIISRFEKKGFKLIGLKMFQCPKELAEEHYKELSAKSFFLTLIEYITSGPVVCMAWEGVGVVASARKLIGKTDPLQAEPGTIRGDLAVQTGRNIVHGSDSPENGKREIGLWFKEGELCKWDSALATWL

T2: purified native oat phytochrome A, Pfr form, P06593
T2 chain: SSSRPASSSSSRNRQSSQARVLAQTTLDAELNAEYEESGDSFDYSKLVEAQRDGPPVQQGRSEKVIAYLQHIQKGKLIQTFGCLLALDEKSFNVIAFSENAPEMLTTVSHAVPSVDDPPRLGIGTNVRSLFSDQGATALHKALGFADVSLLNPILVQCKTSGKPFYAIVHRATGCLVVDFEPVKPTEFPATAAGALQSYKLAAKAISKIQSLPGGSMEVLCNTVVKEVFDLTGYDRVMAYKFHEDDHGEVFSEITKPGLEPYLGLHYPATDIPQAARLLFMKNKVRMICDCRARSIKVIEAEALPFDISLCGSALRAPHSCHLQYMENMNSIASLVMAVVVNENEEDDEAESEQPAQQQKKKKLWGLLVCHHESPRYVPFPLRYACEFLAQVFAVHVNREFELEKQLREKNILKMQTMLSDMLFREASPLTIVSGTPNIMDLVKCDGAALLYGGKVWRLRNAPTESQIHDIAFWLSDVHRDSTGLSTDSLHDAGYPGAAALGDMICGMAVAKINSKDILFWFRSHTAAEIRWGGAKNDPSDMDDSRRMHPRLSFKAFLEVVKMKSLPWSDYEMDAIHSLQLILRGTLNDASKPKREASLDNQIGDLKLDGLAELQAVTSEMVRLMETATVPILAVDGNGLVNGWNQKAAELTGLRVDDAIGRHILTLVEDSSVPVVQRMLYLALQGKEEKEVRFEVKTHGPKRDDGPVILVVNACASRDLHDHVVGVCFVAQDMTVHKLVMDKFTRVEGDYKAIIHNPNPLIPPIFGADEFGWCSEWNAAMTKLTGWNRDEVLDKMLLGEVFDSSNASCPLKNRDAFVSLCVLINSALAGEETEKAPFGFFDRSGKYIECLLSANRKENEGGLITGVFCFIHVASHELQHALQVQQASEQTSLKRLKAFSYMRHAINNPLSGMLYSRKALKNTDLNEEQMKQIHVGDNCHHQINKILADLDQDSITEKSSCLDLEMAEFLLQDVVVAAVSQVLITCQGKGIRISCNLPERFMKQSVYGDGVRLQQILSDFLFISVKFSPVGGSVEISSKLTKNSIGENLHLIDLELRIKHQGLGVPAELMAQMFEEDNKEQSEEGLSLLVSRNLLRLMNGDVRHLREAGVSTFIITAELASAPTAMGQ

T3: purified native oat phytochrome A, Pfr form (oat, UniProt P06593 2-1129)
T3 construct: also called phyA; Pfr phytochrome
T3 sequence (looked up): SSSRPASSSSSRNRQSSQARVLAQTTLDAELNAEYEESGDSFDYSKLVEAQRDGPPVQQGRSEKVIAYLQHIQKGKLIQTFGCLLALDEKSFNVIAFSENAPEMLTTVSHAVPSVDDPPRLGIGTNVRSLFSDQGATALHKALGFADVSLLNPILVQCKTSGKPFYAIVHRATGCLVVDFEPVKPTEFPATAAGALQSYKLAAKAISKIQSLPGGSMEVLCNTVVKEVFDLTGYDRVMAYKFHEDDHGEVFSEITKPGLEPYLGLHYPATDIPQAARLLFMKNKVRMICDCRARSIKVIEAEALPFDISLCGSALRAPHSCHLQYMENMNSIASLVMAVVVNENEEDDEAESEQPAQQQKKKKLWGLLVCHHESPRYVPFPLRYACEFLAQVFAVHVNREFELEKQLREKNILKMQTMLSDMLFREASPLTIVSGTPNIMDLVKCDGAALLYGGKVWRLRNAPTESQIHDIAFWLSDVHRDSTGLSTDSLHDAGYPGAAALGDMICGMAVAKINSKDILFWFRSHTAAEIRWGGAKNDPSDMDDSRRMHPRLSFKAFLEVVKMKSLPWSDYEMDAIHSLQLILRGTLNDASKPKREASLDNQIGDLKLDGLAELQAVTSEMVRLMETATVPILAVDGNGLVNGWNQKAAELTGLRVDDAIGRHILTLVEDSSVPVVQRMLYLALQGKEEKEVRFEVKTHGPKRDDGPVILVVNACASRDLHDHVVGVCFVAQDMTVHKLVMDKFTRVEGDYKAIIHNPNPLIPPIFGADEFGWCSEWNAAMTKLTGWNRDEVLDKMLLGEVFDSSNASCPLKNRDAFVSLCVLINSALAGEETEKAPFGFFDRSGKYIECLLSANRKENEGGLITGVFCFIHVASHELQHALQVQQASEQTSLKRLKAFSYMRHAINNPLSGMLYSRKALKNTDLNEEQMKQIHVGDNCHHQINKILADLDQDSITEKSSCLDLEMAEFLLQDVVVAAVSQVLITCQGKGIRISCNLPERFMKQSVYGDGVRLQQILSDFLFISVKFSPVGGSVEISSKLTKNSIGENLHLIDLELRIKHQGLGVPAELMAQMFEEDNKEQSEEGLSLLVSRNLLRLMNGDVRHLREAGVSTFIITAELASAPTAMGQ


How the values were obtained:
[1] = biological target: T1, Arabidopsis thaliana NDPK2 C-terminal deletion mutant R230Stop (80-229aa), SEQ ID NO: 2; experiment: Km of NDPK2 mutant R230Stop for nucleotides (γ-phosphate exchange activity assay, LDH-PK-coupled); conditions: read-out: Km (ATP); dCDP as acceptor
Description: (§1) In studying the phytochrome binding site in NDPK2, NDPK2 mutants, including the C-terminal deletion mutants, kinase site mutant H197C, and Kpn loop mutant P175S, were made and tested in the binding assays with the Pfr form of native oat phyA (FIG. 2A). […] To investigate the mechanism of hyperactivity of these NDPK2 mutants, the nucleotide affinity was investigated.
(§2) Full-length Arabidopsis NDPK2 was prepared as previously described (Im et al., 2004). The C-terminal deletion mutants of NDPK2 were prepared by polymerase chain reactions using following primers: R230Stop (80-229aa) with 3′ primer: 5′-[…]-[…]-3′ (SmaI) (SEQ ID NO: 8); L225Stop (80-224aa) with 3′ primer: 5′-[…]-[…]

[2] = biological target: Arabidopsis thaliana NDPK2 C-terminal deletion mutant L225Stop (80-224aa), SEQ ID NO: 3 (Arabidopsis thaliana, UniProt O64903); conditions: read-out: Km (ATP); dCDP as acceptor
Description: as §1, §2

[3] = biological target: T2, purified native oat phytochrome A, Pfr …
[4] = biological target: T3, purified native oat phytochrome A, Pfr …; experiment: in vitro immunoprecipitation with native oat phyA, western blot
From the text: In studying the phytochrome binding site in NDPK2, NDPK2 mutants, including the C-terminal deletion mutants, kinase site mutant H197C, and Kpn loop mutant P175S, were made and tested in the binding assays with the Pfr form of native oat phyA (FIG. 2A). […] Moreover, no interactions between Pfr phytochrome and mutants N204Stop and S199Stop were observed. […] Results from the γ-phosphate exchange activity assay were consistent with the in vitro binding assay. […] Thus, R230Stop and L225Stop were hyperactive NDPK2 that binds normally to its upstream signaling molecule, phytochrome. To investigate the mechanism of hyperactivity of these NDPK2 mutants, the nucleotide affinity was investigated. By using two natural nucleotide substrates of NDPK2, ATP and GDP, the Kₘ values were measured to examine the relationship between the nucleotide affinity and NDPK activity in NDPK2 hyperactive mutants (Table 1). […] Therefore, it appears that a higher nucleotide affinity corresponds to a higher NDPK activity.
The in vitro binding assays of phytochrome and NDPK2 were performed by incubating 10 μg of phytochrome and 20 μg of NDPK2 in TBS buffer (50 mM Tris-HCl (pH 7.5), 150 mM NaCl), containing 5 mM MgCl₂, 2 mM dCDP, 0.1% NP40 and protease inhibitors, at 4° C. for 30 min. […]

[5] = substrate: Nc1nc2c(ncn2[C@@H]2O[C@H](COP(=O)(O)OP(=O)(O)O)[C@@H](O)[C@H]2O)c(=O)[nH]1; experiment: purified protein, by the assay type; conditions: other: ATP as donor; 37.0 °C
[6] = substrate: Nc1ncnc2c1ncn2[C@@H]1O[C@H](COP(=O)(O)OP(=O)(O)OP(=O)(O)O)[C@@H](O)[C@H]1O; experiment: Km of NDPK2 for nucleotides (γ-phosphate exchange activity assay, LDH-PK-coupled); assay type: biochemical, Arabidopsis thaliana; conditions: other: dCDP as acceptor; 37.0 °C
Description: NDPK proteins with a cleavable GST tag were expressed in Escherichia coli strain BL21 (DE3). The bacterial cells were induced for 4 h with 1 mM isopropyl β-D-thiogalactopyranoside (IPTG) at 310 K and then harvested by centrifugation at 4,500×g for 20 min. The cells were then resuspended in lysis buffer (1× PBS, phosphate-buffered saline) and lysed by sonication, after which the lysate was centrifuged at 16,000×g for 30 min. The resultant supernatant was applied to a glutathione-sepharose 4B affinity column pre-equilibrated with lysis buffer, after which the column was washed with ten bed volumes of lysis buffer. The GST fusion protein bound to the column was eluted with a buffer of 10 mM glutathione and 50 mM Tris-HCl (pH 8.0). GST Tags were cleaved from NDPKs by treatment with thrombin for 2 days at room temperature. The samples were then purified by size exclusion chromatography using a Superdex 200 column (Pharmacia Biotech) pre-equilibrated with a buffer of 50 mM NaCl and 10 mM Tris-HCl (pH 8.0), after which the fractions containing NDPKs were collected. […]
NDPK2 γ-phosphate exchange activity was measured as previously described (20) with minor modifications. […] NDPK2 activity was measured by monitoring the LDH-PK-coupled NADH decrease at 340 nm. […]

| Molecule | stimulation by Pfr phytochrome in the γ-phosphate exchange activity assay [3] | Km [5] [mM mM] | also measured |
| --- | --- | --- | --- |
| Nc1ncnc2c1ncn2[C@@H]1O[C@H](COP(=O)(O)OP(=O)(O)OP(=O)(O)O)[C@@H](O)[C@H]1O [ATP] | – | – | Km [1]: 211 µM; Km [2]: 213 µM |
| NDPK2 C-terminal deletion mutant S199Stop (enzyme, also called S199Stop (80-198aa)) MEDVEETYIMVKPDGIQRGLVGEIISRFEKKGFKLIGLKMFQCPKELAEEHYKELSAKSFFLTLIEYITSGPVVCMAWEGVGVVASARKLIGKTDPLQAEPGTIRGDLAVQTGRNIVHG | mutants K214Stop, N204Stop, and S199Stop were not stimulated under the identical conditions | – | binding result [4]: no binding |
| NDPK2 C-terminal deletion mutant L225Stop (protein) MEDVEETYIMVKPDGIQRGLVGEIISRFEKKGFKLIGLKMFQCPKELAEEHYKELSAKSFFLTLIEYITSGPVVCMAWEGVGVVASARKLIGKTDPLQAEPGTIRGDLAVQTGRNIVHGSDSPENGKREIGLWFKEGELCKWDSA | Mutants R230Stop and L225Stop were stimulated by Pfr phytochrome significantly | 0.191 | – |
| NDPK2 C-terminal deletion mutant N204Stop (enzyme, also called N204Stop (80-203aa)) MEDVEETYIMVKPDGIQRGLVGEIISRFEKKGFKLIGLKMFQCPKELAEEHYKELSAKSFFLTLIEYITSGPVVCMAWEGVGVVASARKLIGKTDPLQAEPGTIRGDLAVQTGRNIVHGSDSPE | mutants K214Stop, N204Stop, and S199Stop were not stimulated under the identical conditions | – | binding result [4]: no binding |
| NDPK2 C-terminal deletion mutant R230Stop (protein) MEDVEETYIMVKPDGIQRGLVGEIISRFEKKGFKLIGLKMFQCPKELAEEHYKELSAKSFFLTLIEYITSGPVVCMAWEGVGVVASARKLIGKTDPLQAEPGTIRGDLAVQTGRNIVHGSDSPENGKREIGLWFKEGELCKWDSALATWL | Mutants R230Stop and L225Stop were stimulated by Pfr phytochrome significantly | 0.203 | – |
| Arabidopsis thaliana nucleoside diphosphate kinase 2 (NDPK2), wild type, SEQ ID NO: 1 (Arabidopsis thaliana) (protein, hexamer) ASSSAESGIFLPHLVASMEDVEETYIMVKPDGIQRGLVGEIISRFEKKGFKLIGLKMFQCPKELAEEHYKELSAKSFFLTLIEYITSGPVVCMAWEGVGVVASARKLIGKTDPLQAEPGTIRGDLAVQTGRNIVHGSDSPENGKREIGLWFKEGELCKWDSALATWLRE | – | 0.231 | Km [6]: 0.286 mM mM |
| NDPK2 C-terminal deletion mutant K214Stop (protein) MEDVEETYIMVKPDGIQRGLVGEIISRFEKKGFKLIGLKMFQCPKELAEEHYKELSAKSFFLTLIEYITSGPVVCMAWEGVGVVASARKLIGKTDPLQAEPGTIRGDLAVQTGRNIVHGSDSPENGKREIGLWF | mutants K214Stop, N204Stop, and S199Stop were not stimulated under the identical conditions | – | – |
